Reference: patent US20130108682A1, “WOUND CARE PRODUCT COMPRISING A CATHELICIDIN POLYPEPTIDE” (LIPOPEPTIDE AB, priority 2007, published 2013)

Assay: Release of LL-37 from coated polyurethane (PU) foam, quantified by ELISA
Assay type: physicochemical
Details: for % LL-37 released in solution: PU foam, data not shown
Description: LL-37 dissolved in PBS or ethanol was absorbed onto PU foam at a concentration of 25 μg LL-37/cm^2. A 1×1 cm piece of each preparation was cut, placed into a glass vial containing 3 ml PBS, and incubated under agitation for 24 h. At various time points (10, 20, 45, 120 min, and 24 h), 100 μl samples were collected and the amount of LL-37 released in solution was evaluated by ELISA. Results are expressed as the % LL-37 released in solution.
LL-37 was dissolved in ethanol or in PBS and 1 ml suspension was dropped onto 2×2 cm pieces of polyurethane (PU) foam (Brightwake, Kirkby-in-Ashfield, United Kingdom). The samples were allowed to dry at room temperature (RT) until no further weight loss could be recorded. Unless otherwise noted, a LL-37 solution at 100 μg/ml was used, resulting in a concentration of 25 μg LL-37/cm^2.
LL-37 was also mixed with various excipients before being applied onto the 2×2 cm PU foams. LL-37 dissolved in PBS was added to dry galactolipid and the resulting dispersion was vigorously shaken for 1 h. The galactolipid concentration was 0.2% (w/w). LL-37 dissolved in water was added to a preformed gel consisting of 25% poloxamer (Lutrol F127) in water. The resulting mixtures of about 1 g were heated at about 60° C. for about 10 min to evaporate the alcohol. The formulations were then applied with a spatula on 2×2 cm pieces of PU. In case the formulation contained water, PU foams were dried at RT for at least 24 h.
To release LL-37 from coated PU foam, 1×1 cm samples were cut and weighed in order to calculate the amount of LL-37 present in each sample. Each PU foam sample was placed into a 15 ml glass vial containing 3 ml PBS and incubated at RT for the indicated time period with constant shaking of 6 rpm. At various time intervals (10, 20, 45, 120 min, and 24 h), 100 μl release sample was removed for analysis and replaced with 100 μl fresh PBS. Release samples were stored at 4° C. until analysis, usually for 24 h.
The release was calculated as the total amount of LL-37 in the release liquid divided by the amount of loaded LL-37 in the sample.
LL-37 was detected and quantified using an enzyme-linked immunosorbent assay (ELISA) based on the protocol developed by Lindgreen and colleagues (Lindgreen 2004). Medium binding capacity 96-well plates (Greiner Bio-one, Frickenhausen Germany) were coated with […] rabbit IgG anti-LL-37 antibodies (Agrisera, Vännäs, Sweden) in 200 μl coating buffer (0.1M bicarbonate buffer, pH 9.0) for 18 to 24 h at 2-8° C. […] Reaction was stopped by addition of 50 μl 1 M sulfuric acid and absorbance immediately read at 450 nm (OD450 nm) using a VERSAmax microplate reader equipped with SoftMax Pro software for analysis (Molecular Devices).

Sequence: LLGDFFRKSKEKIGKEFKRIVQRIKDFLRNLVPRTES [LL-37]
- % LL-37 released in solution (maximum) (PU foam with 25 μg LL-37, peptide formulated in PBS or in ethanol, 3 ml PBS, shaking, after 24 h incubation): 30%
- % LL-37 released in solution (LL-37 formulated in galactolipid (ethanol or PBS solutions)): No detectable
- % LL-37 released in solution (LL-37 formulated in poloxamer (Lutrol)): 1%
- LL-37 concentration in release sample as determined by ELISA (release sample from PU foam where LL-37 in PBS has been absorbed, used in second chemotaxis experiment): 4,500 ng/ml
